Reference: article PMC6334735

Target: TrkA
Assay: in situ PLA, anti-Trk plus anti-total IRS1
Details: sites Y608

Chain of IRS1 (P35570 whole entry, looked up, change not shown): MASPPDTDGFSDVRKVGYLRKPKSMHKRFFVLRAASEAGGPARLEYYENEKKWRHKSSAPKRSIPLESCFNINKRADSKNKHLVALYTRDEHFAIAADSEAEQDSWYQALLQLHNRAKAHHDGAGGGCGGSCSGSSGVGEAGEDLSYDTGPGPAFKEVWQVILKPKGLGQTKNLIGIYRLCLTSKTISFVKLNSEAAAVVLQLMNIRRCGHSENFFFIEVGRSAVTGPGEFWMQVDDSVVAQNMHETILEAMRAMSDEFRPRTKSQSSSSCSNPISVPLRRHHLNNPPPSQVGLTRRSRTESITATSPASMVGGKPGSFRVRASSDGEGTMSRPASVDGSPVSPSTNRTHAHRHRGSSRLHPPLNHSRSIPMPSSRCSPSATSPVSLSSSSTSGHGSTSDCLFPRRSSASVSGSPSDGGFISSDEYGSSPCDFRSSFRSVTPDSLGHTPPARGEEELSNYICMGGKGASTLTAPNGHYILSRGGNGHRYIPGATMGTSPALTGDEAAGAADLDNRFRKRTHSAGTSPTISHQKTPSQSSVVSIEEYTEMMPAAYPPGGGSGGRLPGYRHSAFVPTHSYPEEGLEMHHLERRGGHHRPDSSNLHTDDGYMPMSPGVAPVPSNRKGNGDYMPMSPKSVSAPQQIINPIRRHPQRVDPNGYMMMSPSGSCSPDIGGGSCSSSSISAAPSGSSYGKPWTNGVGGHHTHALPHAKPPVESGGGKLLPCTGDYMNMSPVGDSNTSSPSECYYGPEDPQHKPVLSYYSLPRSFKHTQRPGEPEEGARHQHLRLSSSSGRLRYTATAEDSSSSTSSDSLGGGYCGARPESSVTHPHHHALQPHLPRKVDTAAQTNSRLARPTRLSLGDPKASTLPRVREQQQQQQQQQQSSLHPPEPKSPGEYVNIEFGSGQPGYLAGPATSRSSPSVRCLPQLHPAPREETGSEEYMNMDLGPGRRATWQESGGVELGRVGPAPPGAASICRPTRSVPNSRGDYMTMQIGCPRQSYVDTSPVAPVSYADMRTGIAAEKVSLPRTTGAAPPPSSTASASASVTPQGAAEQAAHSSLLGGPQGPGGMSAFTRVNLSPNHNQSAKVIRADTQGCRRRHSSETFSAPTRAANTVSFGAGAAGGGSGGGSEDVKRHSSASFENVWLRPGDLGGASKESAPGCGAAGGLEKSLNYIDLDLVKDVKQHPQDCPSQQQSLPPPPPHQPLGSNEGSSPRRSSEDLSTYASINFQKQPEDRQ

other: PLA dots per neuron (reference: NGF-treated neurons)	other: PLA dots per neuron (reference: untreated neurons (CTR))	Substance
weaker; reference 121.5 ± 16.4	–	IRS1 (from UniProt P35570) NGF after NT157 preincubation (10 µM, 2 h)
–	stronger; reference 50.6 ± 5.9	IRS1 (from UniProt P35570) NGF 100 ng/ml, 30 min
